Assay results published in patent US20190142860A1, “NUCLEIC ACID BASED TIA-1 INHIBITORS” (Aquinnah Pharmaceuticals, Inc., priority 2015, published 2019).

Legend:
[1] = biological target: Nucleolysin TIA-1 (endogenous mouse TIA1) (mouse) (UniProt P52912); experiment: TIA1 IP-MS, WT1 cortex
[2] = biological target: Nucleolysin TIA-1 (endogenous mouse TIA1) (mouse) (UniProt P52912); experiment: TIA1 IP-MS, WT2 cortex
[3] = biological target: Nucleolysin TIA-1 (endogenous mouse TIA1) (mouse) (UniProt P52912); experiment: TIA1 IP-MS, WT3 cortex
[4] = biological target: Nucleolysin TIA-1 (endogenous mouse TIA1) (mouse) (UniProt P52912); experiment: TIA1 IP-MS, tau KO 1 cortex
[5] = biological target: Nucleolysin TIA-1 (endogenous mouse TIA1) (mouse) (UniProt P52912); experiment: TIA1 IP-MS, tau KO 2 cortex
[6] = biological target: Nucleolysin TIA-1 (endogenous mouse TIA1) (mouse) (UniProt P52912); experiment: TIA1 IP-MS, tau KO 3 cortex

Chain of UniProt P52912 (P52912 whole entry): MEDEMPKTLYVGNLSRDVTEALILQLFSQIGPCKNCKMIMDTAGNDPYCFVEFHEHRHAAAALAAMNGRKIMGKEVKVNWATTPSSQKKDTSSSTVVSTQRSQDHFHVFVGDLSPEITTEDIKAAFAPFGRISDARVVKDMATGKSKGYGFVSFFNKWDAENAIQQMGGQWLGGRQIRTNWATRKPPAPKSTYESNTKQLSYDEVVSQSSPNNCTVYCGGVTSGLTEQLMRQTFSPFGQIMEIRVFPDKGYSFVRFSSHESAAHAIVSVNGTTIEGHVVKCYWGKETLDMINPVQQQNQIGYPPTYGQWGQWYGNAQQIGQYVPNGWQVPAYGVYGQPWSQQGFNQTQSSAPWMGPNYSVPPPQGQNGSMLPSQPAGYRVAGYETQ

| Substance | total ion current (normalized to TIA1 = 1000) [1] | total ion current (normalized to TIA1 = 1000) [2] | total ion current (normalized to TIA1 = 1000) [3] | total ion current (normalized to TIA1 = 1000) [4] | total ion current (normalized to TIA1 = 1000) [5] | total ion current (normalized to TIA1 = 1000) [6] |
| --- | --- | --- | --- | --- | --- | --- |
| Isoform Cytoplasmic of Fumarate hydratase, mitochondrial (from UniProt P97807 1-467) | 0 | 57.7 | 0 | 0 | 49.2 | 0 |
| Isoform Glt-1A of Excitatory amino acid transporter 2 (from UniProt P43006 1-569) | 0 | 187 | 298 | 0 | 96.4 | 0 |
| Isoform I of Septin-6 (from UniProt Q9R1T4 2-427) | 0 | 53.3 | 0 | 0 | 35.6 | 0 |
| Isoform M1 of Pyruvate kinase PKM (from UniProt P52480 1-531) | 0 | 1130 | 722 | 0 | 891 | 0 |
| Isoform Mt-VDAC1 of Voltage-dependent anion-selective channel protein 1 (from UniProt Q60932 2-283) | 0 | 184 | 101 | 0 | 0 | 0 |
| Isovaleryl-CoA dehydrogenase, mitochondrial (from UniProt Q9JHI5 31-424) | 7.28 | 0 | 0 | 5.22 | 0 | 0 |
| Ketimine reductase mu-crystallin (from UniProt O54983 1-313) | 8.5 | 0 | 0 | 0 | 0 | 0 |
| LanC-like protein 1 (from UniProt O89112 2-399) | 0 | 0 | 218 | 0 | 97.8 | 0 |
| Leucine-rich repeat-containing protein 59 (from UniProt Q922Q8 1-307) | 0 | 408 | 0 | 10.6 | 0 | 0 |
| Malate dehydrogenase, cytoplasmic (from UniProt P14152 2-334) | 0 | 189 | 31.7 | 0 | 81.6 | 0 |
| Malate dehydrogenase, mitochondrial (from UniProt P08249 25-338) | 0 | 819 | 131 | 0 | 477 | 0 |
| Microtubule-associated protein 6 (from UniProt Q7TSJ2 1-906) | 0 | 116 | 0 | 0 | 36.1 | 0 |
| Mitochondrial glutamate carrier 1 (from UniProt Q9D6M3 1-323) | 0 | 136 | 85 | 0 | 12.2 | 0 |
| Mitogen-activated protein kinase 1 (from UniProt P63085 2-358) | 0 | 112 | 0 | 0 | 72.4 | 141 |
| Myelin-oligodendrocyte glycoprotein (from UniProt Q61885 29-246) | 0 | 133 | 607 | 0 | 76 | 0 |
| NADH dehydrogenase [ubiquinone] flavoprotein 1, mitochondrial (from UniProt Q91YT0 21-464) | 0 | 179 | 0 | 0 | 0 | 0 |
| NADH dehydrogenase [ubiquinone] iron-sulfur protein 2, mitochondrial (from UniProt Q91WD5 34-463) | 0 | 137 | 0 | 0 | 27 | 0 |
| NADH dehydrogenase [ubiquinone] iron-sulfur protein 3, mitochondrial (from UniProt Q9DCT2 36-263) | 0 | 366 | 60.8 | 0 | 36.9 | 0 |
| Nascent polypeptide-associated complex subunit alpha, muscle-specific form (from UniProt P70670 1-2187) | 0 | 98.9 | 0 | 10.5 | 0 | 474 |
| Nicotinamide phosphoribosyltransferase (from UniProt Q99KQ4 1-491) | 0 | 0 | 0 | 0 | 0 | 1570 |
| PH and SEC7 domain-containing protein 3 (from UniProt Q2PFD7 1-1037) | 0 | 555 | 0 | 0 | 133 | 0 |
| Phosphatidylinositol 5-phosphate 4-kinase type-2 gamma (from UniProt Q91XU3 2-421) | 0 | 36.6 | 0 | 0 | 0 | 0 |
| Phytanoyl-CoA hydroxylase-interacting protein (from UniProt Q8K0S0 1-330) | 0 | 17.1 | 0 | 0 | 54.7 | 0 |
| Poly(rC)-binding protein 1 (from UniProt P60335 1-356) | 0 | 19.2 | 30.2 | 0 | 58.5 | 0 |
| Polyadenylate-binding protein 1 (from UniProt P29341 1-636) | 0 | 50.7 | 0 | 0 | 86.4 | 0 |
| Probable ATP-dependent RNA helicase DDX17 (from UniProt Q501J6 1-650) | 0 | 135 | 0 | 0 | 34.1 | 0 |
| Prohibitin (from UniProt P67778 2-272) | 0 | 172 | 37.7 | 0 | 137 | 0 |
